Literature values as cited in patent US20160346224A1, “COMPOSITIONS AND METHODS FOR REDUCING VISUAL LOSS” (Edge Therapeutics, Inc., priority 2015, published 2016).
No end group written: not given here.

Columns and labels:
[1] = target: T1, R-type calcium current in the neurohypophysial nerve endings (Rattus norvegicus, UniProt Q07652); conditions: at 40 nM concentration
T1 construct: R-type calcium current in the neurohypophysial nerve endings at 40 nM concentration; host or cells: neurohypophysial nerve endings (native tissue preparation)

[2] = tested on: K+ and Na+ currents, and L, P/Q and T-type calcium currents
N-type calcium current = N-type calcium current (Homo sapiens, UniProt Q00975); conditions: at 300 nM to 500 nM
[3] = tested on: R-type current in preparations of the neuronal cell body, retinal ganglion cells and hippocampal pyramidal cells

N-type calcium current, sequence (Q00975 whole entry): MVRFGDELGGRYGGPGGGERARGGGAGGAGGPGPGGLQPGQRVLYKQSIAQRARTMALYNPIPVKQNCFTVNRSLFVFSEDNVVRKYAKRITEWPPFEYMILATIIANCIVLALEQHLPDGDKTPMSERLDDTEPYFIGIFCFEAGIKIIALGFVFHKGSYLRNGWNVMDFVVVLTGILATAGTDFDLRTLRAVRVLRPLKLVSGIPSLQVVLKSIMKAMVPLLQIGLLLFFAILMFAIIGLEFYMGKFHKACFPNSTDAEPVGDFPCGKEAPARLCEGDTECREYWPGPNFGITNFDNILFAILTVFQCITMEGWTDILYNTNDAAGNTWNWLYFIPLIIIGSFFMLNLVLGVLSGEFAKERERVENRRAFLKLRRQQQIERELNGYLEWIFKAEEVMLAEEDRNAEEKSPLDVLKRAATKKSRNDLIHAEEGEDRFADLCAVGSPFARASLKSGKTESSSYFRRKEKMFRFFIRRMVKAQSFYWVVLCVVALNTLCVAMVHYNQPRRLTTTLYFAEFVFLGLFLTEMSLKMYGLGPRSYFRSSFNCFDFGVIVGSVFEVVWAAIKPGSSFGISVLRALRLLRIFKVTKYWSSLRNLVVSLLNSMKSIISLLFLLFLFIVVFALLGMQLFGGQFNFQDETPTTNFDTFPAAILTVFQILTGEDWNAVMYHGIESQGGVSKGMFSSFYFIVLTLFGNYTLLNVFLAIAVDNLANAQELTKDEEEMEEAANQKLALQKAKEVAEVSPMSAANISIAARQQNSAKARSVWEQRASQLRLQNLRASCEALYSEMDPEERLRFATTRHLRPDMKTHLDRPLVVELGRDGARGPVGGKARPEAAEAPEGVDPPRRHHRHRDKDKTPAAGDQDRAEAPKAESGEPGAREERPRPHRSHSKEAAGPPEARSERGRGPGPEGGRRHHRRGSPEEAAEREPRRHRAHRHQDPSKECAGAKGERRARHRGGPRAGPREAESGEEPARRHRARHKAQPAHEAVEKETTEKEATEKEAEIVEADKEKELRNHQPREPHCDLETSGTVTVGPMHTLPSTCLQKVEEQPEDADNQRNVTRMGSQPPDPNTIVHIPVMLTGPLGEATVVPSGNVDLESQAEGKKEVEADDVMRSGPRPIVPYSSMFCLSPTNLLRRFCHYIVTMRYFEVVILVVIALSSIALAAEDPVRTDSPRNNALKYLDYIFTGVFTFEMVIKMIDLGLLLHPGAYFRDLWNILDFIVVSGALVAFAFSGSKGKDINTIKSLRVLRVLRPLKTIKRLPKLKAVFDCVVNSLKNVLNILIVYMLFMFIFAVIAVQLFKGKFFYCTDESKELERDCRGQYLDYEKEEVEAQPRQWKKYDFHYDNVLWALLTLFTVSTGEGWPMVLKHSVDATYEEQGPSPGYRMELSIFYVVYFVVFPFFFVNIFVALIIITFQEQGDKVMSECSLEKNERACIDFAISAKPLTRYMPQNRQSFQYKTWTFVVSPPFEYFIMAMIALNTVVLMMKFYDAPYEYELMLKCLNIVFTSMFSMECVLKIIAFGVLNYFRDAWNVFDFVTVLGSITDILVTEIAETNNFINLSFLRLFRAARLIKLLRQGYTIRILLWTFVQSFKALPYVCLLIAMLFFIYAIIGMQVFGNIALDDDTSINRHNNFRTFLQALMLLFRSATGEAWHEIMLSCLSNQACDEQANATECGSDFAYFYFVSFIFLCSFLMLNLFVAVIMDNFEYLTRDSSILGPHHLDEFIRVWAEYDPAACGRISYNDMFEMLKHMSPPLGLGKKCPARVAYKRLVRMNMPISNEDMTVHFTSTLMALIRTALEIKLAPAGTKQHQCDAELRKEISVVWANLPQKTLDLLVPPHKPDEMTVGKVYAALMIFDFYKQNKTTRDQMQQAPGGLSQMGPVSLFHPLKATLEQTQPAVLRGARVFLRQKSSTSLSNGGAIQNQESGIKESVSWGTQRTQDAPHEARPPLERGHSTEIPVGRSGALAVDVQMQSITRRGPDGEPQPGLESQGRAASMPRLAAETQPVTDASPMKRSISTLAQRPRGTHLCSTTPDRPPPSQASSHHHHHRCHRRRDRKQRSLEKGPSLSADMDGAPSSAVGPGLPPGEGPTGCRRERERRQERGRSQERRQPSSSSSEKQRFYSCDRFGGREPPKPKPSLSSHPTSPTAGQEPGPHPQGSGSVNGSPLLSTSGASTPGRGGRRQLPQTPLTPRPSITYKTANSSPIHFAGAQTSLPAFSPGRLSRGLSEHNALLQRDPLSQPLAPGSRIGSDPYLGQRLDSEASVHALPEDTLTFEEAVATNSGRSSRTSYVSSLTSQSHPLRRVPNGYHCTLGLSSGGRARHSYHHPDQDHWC
T1 sequence (Q07652 whole entry): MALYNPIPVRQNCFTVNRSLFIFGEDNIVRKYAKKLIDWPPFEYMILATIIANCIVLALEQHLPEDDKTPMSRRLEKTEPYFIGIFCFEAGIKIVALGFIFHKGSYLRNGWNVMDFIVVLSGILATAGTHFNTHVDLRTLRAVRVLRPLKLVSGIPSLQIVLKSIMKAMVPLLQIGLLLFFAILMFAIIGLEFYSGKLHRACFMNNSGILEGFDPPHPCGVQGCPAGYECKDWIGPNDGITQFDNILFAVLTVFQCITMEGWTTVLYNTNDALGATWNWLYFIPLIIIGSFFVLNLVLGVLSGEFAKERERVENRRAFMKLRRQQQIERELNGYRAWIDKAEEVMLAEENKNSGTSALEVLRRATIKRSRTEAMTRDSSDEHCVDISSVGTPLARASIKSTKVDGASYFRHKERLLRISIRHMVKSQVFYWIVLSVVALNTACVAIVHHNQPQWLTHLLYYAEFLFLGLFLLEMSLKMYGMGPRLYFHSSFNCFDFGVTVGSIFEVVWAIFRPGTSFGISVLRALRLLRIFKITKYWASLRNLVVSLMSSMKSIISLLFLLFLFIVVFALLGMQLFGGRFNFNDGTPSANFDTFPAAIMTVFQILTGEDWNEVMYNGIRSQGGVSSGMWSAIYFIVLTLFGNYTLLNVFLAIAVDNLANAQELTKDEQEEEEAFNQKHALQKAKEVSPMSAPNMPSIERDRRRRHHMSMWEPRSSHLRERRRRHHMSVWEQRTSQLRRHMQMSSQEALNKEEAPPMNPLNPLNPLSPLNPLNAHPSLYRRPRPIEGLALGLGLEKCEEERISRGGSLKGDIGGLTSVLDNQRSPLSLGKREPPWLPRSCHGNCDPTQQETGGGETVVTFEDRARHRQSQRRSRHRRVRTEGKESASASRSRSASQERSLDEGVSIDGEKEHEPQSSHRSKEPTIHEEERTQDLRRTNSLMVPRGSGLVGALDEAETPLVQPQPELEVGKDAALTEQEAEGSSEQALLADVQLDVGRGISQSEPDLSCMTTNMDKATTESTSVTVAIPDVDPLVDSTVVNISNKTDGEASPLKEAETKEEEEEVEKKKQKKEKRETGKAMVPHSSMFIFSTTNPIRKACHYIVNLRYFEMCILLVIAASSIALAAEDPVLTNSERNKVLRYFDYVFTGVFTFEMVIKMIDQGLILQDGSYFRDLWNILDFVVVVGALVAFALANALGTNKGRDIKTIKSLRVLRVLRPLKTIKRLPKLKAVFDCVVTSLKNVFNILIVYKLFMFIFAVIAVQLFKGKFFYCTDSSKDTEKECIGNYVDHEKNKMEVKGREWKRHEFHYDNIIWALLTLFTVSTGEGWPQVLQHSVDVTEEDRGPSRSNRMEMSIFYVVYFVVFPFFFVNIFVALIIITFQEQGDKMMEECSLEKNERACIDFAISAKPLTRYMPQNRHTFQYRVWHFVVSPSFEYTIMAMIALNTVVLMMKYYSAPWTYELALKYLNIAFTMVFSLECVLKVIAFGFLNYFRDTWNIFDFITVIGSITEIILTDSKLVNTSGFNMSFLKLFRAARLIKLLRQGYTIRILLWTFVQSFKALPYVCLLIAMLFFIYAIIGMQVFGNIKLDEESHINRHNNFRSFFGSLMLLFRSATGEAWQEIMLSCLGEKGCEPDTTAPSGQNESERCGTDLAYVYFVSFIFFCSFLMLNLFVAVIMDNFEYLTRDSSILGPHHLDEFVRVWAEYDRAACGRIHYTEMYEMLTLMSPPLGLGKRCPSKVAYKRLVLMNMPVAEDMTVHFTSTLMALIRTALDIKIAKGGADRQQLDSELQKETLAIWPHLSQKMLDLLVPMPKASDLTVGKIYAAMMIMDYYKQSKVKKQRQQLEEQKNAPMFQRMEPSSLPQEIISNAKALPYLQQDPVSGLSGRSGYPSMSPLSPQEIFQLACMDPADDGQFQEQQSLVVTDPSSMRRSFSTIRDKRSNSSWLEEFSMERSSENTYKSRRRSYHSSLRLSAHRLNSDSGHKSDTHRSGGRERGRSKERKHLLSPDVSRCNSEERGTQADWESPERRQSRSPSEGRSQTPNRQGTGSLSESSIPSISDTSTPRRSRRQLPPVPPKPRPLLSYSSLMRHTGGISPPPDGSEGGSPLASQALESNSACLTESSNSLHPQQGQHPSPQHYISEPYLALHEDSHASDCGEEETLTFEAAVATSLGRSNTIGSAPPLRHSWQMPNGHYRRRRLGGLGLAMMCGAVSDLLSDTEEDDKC

## SNX-482: toxin from the tarantula Hysterocrates gigas, a 41 amino acid residue peptide with 3 disulfide linkages; putative R-type selective antagonist (GVDKAGCRYMFGGCSVNDDCCPRLGCHSLFSYCAWDLTFSD; disulfide (positions not given here); also: 3 disulfide linkages, pairings not given here; UniProt P56854 1-41, looked up)
[1]
  block of R-type calcium current: blocks
[2]
  effect on K+ and Na+ currents, and L, P/Q and T-type calcium currents: no effect
N-type calcium current
  block of N-type calcium current: 30-50%
[3]
  effect on R-type current: no significant effect
